Experimental findings from patent US7521047 (GPC BIOTECH, dated 2009) are described below.

Test [1] has as its target T1, HLA-DR (DRA*0101/DRB1*0401) on PRIESS cells (human, UniProt P01903 26-254; P01911 30-266).
T1 MHC II alpha: not shown
T1 MHC II beta: not shown
As to the kind of experiment: cell-based or functional assay.

Test [2] concerns the target T2, BSA (bovine, UniProt P02769 25-607).
T2 construct: negative control antigen; also called bovine serum albumine
As to the kind of experiment: ELISA, coated antigen. In general terms: In an ELISA, binding on a coated surface is turned into a signal by an enzyme label.

The target of test [3] is T3, human MHC class II DR protein (DRA*0101/DRB1*0401), purified from PRIESS cells (human, UniProt P01903 26-254; P01911 30-266, limits assumed).
T3 construct: mature; also called HLA-DR protein; MHCII
T3 MHC II alpha: not shown
T3 MHC II beta: not shown
As to the kind of experiment: SPR (BIAcore), Fab, chip density 500 RU MHCII. (SPR reads the build-up and loss of mass on a sensor chip optically.)

Test [4] concerns the target T3, human MHC class II DR protein …. As to the kind of experiment: BiaCore, Fab.
Test [5] addresses HLA-DR on LG-2 cells (human). As to the kind of experiment: cell-based or functional assay.
The target of test [6] is T4, chimeric 0401-IE class II molecule on cells of transgenic mice (human/murine chimera). As to the kind of experiment: cell-based or functional assay.
Test [7] deals with T3, human MHC class II DR protein …. As to the kind of experiment: SPR (BIAcore), MHCII on CM5 chip.
The target is the same in test [8]. As to the kind of experiment: SPR (BIAcore), MHCII on CM5 chip.
Test [9] shares this target. As to the kind of experiment: ELISA, coated antigen, Fab 100 ng/well, read at 370 nm. As to the method: After washing in PBS the anti-human IgG F(ab')_2-peroxidase-conjugate at a 1:10,000 dilution in TBS (supplemented with 5% w/v non-fat drymilk/0.05% v/v Tween 20) was added to each well for 1 h. Final washes were carried out in PBS followed the addition the substrate POD (Roche).

Test [10] has the same target. As to the kind of experiment: BiaCore, IgG4. How it is done:
The affinities for anti-HLA antibody fragments of the invention were measured as follows. All measurements were conducted in HBS buffer (20 mM HEPES, 150 mM NaCl, pH 7.4) at a flow rate of 20 µl/min at 25° C. on a BIAcore3000 instrument (Biacore AB, Sweden). MHC class II DR protein (prepared as example 1) was diluted in 100 mM sodium acetate pH 4.5 to a concentration of […], and coupled to a CM5 chip (Biacore AB) using standard EDC-NHS coupling chemistry with subsequent ethanolamine treatment as manufacturers directions. The coating density of MHCII was adjusted to between 500 and 4000 RU. Affinities were measured by injection of 5 different concentrations of the different antibodies and using the standard software of the Biacore instrument. Regeneration of the coupled surface was achieved using 10 mM glycine pH 2.3 and 7.5 mM NaOH.

In test [11] the target is T4, chimeric 0401-IE class II molecule on …. As to the kind of experiment: cell-based or functional assay. This is another data set of the same source.
The target in test [12] is T1, HLA-DR (DRA*0101/DRB1*0401) on PRIESS …. As to the kind of experiment: cell-based or functional assay.
Test [13] addresses HLA-DR on ARH-77 cells (human). As to the kind of experiment: cell-based or functional assay.
Test [14] deals with HLA-DR on GRANTA-519 cells (human). As to the kind of experiment: cell-based or functional assay.
The target in test [15] is HLA-DR on KARPAS-422 cells (human). As to the kind of experiment: cell-based or functional assay.
The target of test [16] is HLA-DR on KARPAS-299 cells (human). As to the kind of experiment: cell-based or functional assay.
Test [17] has as its target HLA-DR on DOHH-2 cells (human). As to the kind of experiment: cell-based or functional assay.
The target in test [18] is HLA-DR on SR-786 cells (human). As to the kind of experiment: cell-based or functional assay.
In test [19] the target is HLA-DR on MHH-CALL-4 cells (human). As to the kind of experiment: cell-based or functional assay.
Test [20] addresses HLA-DR on MN-60 cells (human). As to the kind of experiment: cell-based or functional assay.
The target of test [21] is HLA-DR on BJAB cells (human). As to the kind of experiment: cell-based or functional assay.
Test [22] addresses HLA-DR on RAJI cells (human). As to the kind of experiment: cell-based or functional assay.
The target of test [23] is HLA-DR on L-428 cells (human). As to the kind of experiment: cell-based or functional assay.
The target of test [24] is HLA-DR on HDLM-2 cells (human). As to the kind of experiment: cell-based or functional assay.
In test [25] the target is HLA-DR on HD-MY-Z cells (human). As to the kind of experiment: cell-based or functional assay.
For test [26], the target named is HLA-DR on KM-H2 cells (human). As to the kind of experiment: cell-based or functional assay.
Test [27] deals with HLA-DR on L1236 cells (human). As to the kind of experiment: cell-based or functional assay.
The target of test [28] is HLA-DR on BONNA-12 cells (human). As to the kind of experiment: cell-based or functional assay.
The target of test [29] is HLA-DR on HC-1 cells (human). As to the kind of experiment: cell-based or functional assay.
Test [30] deals with HLA-DR on NALM-1 cells (human). As to the kind of experiment: cell-based or functional assay.
Test [31] addresses HLA-DR on L-363 cells (human). As to the kind of experiment: cell-based or functional assay.
Test [32] deals with HLA-DR on EOL-1 cells (human). As to the kind of experiment: cell-based or functional assay.
The target in test [33] is HLA-DR on LP-1 cells (human). As to the kind of experiment: cell-based or functional assay.
For test [34], the target named is HLA-DR on RPMI-8226 cells (human). As to the kind of experiment: cell-based or functional assay.
Test [35] addresses HLA-DR on MHH-PREB-1 cells (human). As to the kind of experiment: cell-based or functional assay.
In test [36] the target is T3, human MHC class II DR protein …. As to the kind of experiment: SPR (BIAcore), IgG4 over MHCII on CM5 chip.
The target of test [37] is T2, BSA. As to the kind of experiment: ELISA, purified coated protein, OD at 370 nm minus background.

T2 sequence (P02769 25-607 limits assumed): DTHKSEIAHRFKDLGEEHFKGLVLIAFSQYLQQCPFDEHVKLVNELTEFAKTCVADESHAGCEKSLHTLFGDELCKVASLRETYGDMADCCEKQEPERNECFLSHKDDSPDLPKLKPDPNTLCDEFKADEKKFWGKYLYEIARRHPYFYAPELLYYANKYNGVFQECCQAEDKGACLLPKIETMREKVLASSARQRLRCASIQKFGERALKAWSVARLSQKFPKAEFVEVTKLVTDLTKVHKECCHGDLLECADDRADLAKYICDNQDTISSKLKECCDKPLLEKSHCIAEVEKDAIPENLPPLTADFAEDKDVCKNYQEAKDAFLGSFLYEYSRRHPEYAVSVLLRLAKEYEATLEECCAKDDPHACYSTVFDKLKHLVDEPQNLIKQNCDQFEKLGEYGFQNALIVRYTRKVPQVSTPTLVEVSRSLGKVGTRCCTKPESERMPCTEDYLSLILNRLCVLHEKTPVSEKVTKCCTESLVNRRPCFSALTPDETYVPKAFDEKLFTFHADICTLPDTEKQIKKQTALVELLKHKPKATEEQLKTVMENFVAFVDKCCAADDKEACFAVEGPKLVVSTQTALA

B1: MS-GPC-1 Fab (Fab, V domains shown)
VH: QVQLKESGPALVKPTQTLTLTCTFSGFSLSTSGVGVGWIRQPPGKALEWLALIDWDDDKYYSTSLKTRLTISKDTSKNQVVLTMTNMDPVDTATYYCARQYGHRGGFDHWGQGTLVTVSS
VL: DIVLTQPPSVSGAPGQRVTISCSGSSSNIGSNYVSWYQQLPGTAPKLLIYDNNQRPSGVPDRFSGSKSGTSASLAITGLQSEDEADYYCQSYDFNESVFGGGTKLTVLG
notes: Fab from pMx9_Fab: VH-CH1 with FLAG tag and STREP tag II, VL-CL; VH residue 1 is Q in Fab; also called 17-Fab; 17
Take B1: the “EC50 of cell killing, cross-linked Fab, bivalent agent” value (“EC50 of cell killing … bivalent agent” below) in test [1] came out at 54 nM. The binding result in [2] is given as “no binding”. In [3], the Kd (commonly the concentration at which binding is half-saturated) was 820 nM; the koff (in general, the rate constant with which the complex falls apart) worked out at 0.053 s⁻¹; the kon (usually the rate constant with which the complex forms) is 63900 M⁻¹ s⁻¹.

B2: MS-GPC-8-27-41 Fab (Fab, V domains shown)
VH: QVQLKESGPALVKPTQTLTLTCTFSGFSLSTSGVGVGWIRQPPGKALEWLALIDWDDDKYYSTSLKTRLTISKDTSKNQVVLTMTNMDPVDTATYYCARSPRYRGAFDYWGQGTLVTVSS
VL: DIVLTQPPSVSGAPGQRVTISCSGSESNIGNNYVQWYQQLPGTAPKLLIYDNNQRPSGVPDRFSGSKSGTSASLAITGLQSEDEADYYCQSYDMNVHVFGGGTKLTVLG
notes: Fab: VH-CH1 with FLAG tag and STREP tag II, VL-CL; VH residue 1 is Q in Fab; also called 1D09C3
Regarding B2, the results for the Kd in test [4], in test [7] and in test [8] were 2.93 nM, 2.93 nM and 2.9 nM, respectively. The koff in test [4], in test [7] and in [8] was 0.00049 s⁻¹ throughout. For the same molecule, the values for the kon in test [4], in test [7] and in test [8] were 167000 M⁻¹ s⁻¹, 167000 M⁻¹ s⁻¹ and 170000 M⁻¹ s⁻¹, respectively. The “EC50 of cell killing … bivalent agent” value was 7.2 nM in test [5] and 7.7 nM in [1]. Further, the “IC50 of inhibition of IL-2 secretion from T-Hyb 1 cells” value in test [6] is 3.6 nM (half the concentration of the Fab). Moreover, the “Maximum inhibition(%) of IL-2 secretion” value in [6] was 100%. In addition, the ELISA signal in test [9] is 1.52.

B3: MS-GPC-10 Fab (Fab, V domains shown)
VH: QVQLKESGPALVKPTQTLTLTCTFSGFSLSTSGVGVGWIRQPPGKALEWLALIDWDDDKYYSTSLKTRLTISKDTSKNQVVLTMTNMDPVDTATYYCARQLHYRGGFDLWGQGTLVTVSS
VL: DIVLTQPPSVSGAPGQRVTISCSGSSSNIGSNYVSWYQQLPGTAPKLLIYDNNQRPSGVPDRFSGSKSGTSASLAITGLQSEDEADYYCQSYDLTMGVFGGGTKLTVLG
notes: Fab from pMx9_Fab: VH-CH1 with FLAG tag and STREP tag II, VL-CL; VH residue 1 is Q in Fab; also called E6-Fab; E6
Turning to B3, in [1], the “EC50 of cell killing … bivalent agent” value was 33 nM. For the same molecule, in [2], the binding result is reported as “no binding”. In [3], the Kd is 2860 nM, the koff was found to be 0.063 s⁻¹ and the kon is 22000 M⁻¹ s⁻¹.

B4: MS-GPC-8-27-41 IgG4 (antibody, V domains shown)
VH: QVQLKESGPALVKPTQTLTLTCTFSGFSLSTSGVGVGWIRQPPGKALEWLALIDWDDDKYYSTSLKTRLTISKDTSKNQVVLTMTNMDPVDTATYYCARSPRYRGAFDYWGQGTLVTVSS
VL: DIVLTQPPSVSGAPGQRVTISCSGSESNIGNNYVQWYQQLPGTAPKLLIYDNNQRPSGVPDRFSGSKSGTSASLAITGLQSEDEADYYCQSYDMNVHVFGGGTKLTVLG
notes: also called 1D09C3; IgG form of MS-GPC-8-27-41
B4: the Kd was determined as 0.6 nM in test [10] and 0.31 nM in test [36]. Besides, the koff in test [10] was determined as 0.00041 s⁻¹; in test [36], 3.1e-05 s⁻¹. In addition, in test [11], the “IC50 value for inhibition of T cell proliferation” value was 20 nM. Also, the “% Killing by mAb, 50 nM, 4 h” value came to 88% in test [12]; 85% in test [13]; 78% in [14]; 66% in test [15]; 82% in [16]; 59% in [17]. Besides, the “% Killing by mAb, 50 nM, 4 h” value is 53% in [18]; 63% in [19]; 69% in test [20]; 71% in test [21]; 84% in test [22]; 91% in test [23]. Besides, the “% Killing by mAb, 50 nM, 4 h” value in test [24] stood at 88%; in test [25], 69%; in test [26], 86%; in [27] it was 63%; in [28], 92%; in test [29], 93%. In addition, the “% Killing by mAb, 50 nM, 4 h” value came out at 82% in test [30]; 26% in test [31]; 69% in test [32]; 73% in test [33]; 29% in test [34]; 4% in test [35]. In addition, the “EC50 of cell killing, IgG4” value in test [1] came to 1.1 nM. The “IC50 of inhibition of IL-2 secretion from T-Hyb 1 cells” value in test [6] is 0.28 nM. Moreover, the “Maximum inhibition(%) of IL-2 secretion” value in test [6] came to 100%. In test [36], the kon was 110000 M⁻¹ s⁻¹. Moreover, in test [37], the binding result is “no binding”.
